Paper PMC2679143 (PLoS ONE, 2009)

B1: Cif from Photorhabdus luminescens (natural protein)
chain: SKFKKNSINTIKLIDDIIALHNDPKGNKLLWNDNWQDKIINRDLANIFEKIDESVSELGGLEMYQEMVGVNPYDPTEPVCGLSAQNIFKLMTEGEHAVDPVEMAQTGKIDGNEFAESVDQLSSAKNYVALVNDRRLGHMFLIDIPSNDQETVGYIYQSDLGQGALPPLKIADWLNSRGKDAVSLNKLKKLLSREFNLLSDDEKRALISETLDIHKDVSNVELDRIKRDRGVDIYLTEYDVNNFYENIETLKSKLSNYDKKLSKPK
notes: also called CifPl; source: E. coli BL21(DE3) or B834(DE3), pET28a, purified (Ni2+-IMAC, Superdex 75)
B2: Cif from Photorhabdus asymbiotica (natural protein)
chain: MMREYSKEDDCVKEKTNLAESENVEADNYLEMDCLNYLAKLNGMPERKDHSLNSTKLIDDIIKLHNDRKGNKLLWNDNWQDKIIDRDLESIFKKIDEMVSEFGGIEIYKDIVGENPYDPTEPVCGYSAQNIFKLMTEGEHAVDPVKMAQTGKINGNEFAEKLEQLNSSNNYVALINDHRLGHMFLVDIPSTNREKVGYIYQSDLGDGALPALKIADWLKSRGKESINVNKLKKFLSNEFTMLSESEQKELIAEIFDINKDIANVKLGKIKKDKAVDVYLREYDLNDFISNIEKLKTKLV
notes: also called CifPa; P. asymbiotica Cif; source: E. coli BL21(DE3) or B834(DE3), pET28a, purified (Ni2+-IMAC, Superdex 75)

Experiments:
[1] = molecular target: cycle inhibiting factor (Cif) from enteropathogenic Escherichia coli (EPEC) (enteropathogenic Escherichia coli (EPEC)); assay: SEC
SEC = molecular target: the molecule itself; assay: SEC

Molecule | stoichiometry N [1] | stoichiometry N (SEC)
cycle inhibiting factor (Cif) from enteropathogenic Escherichia coli (EPEC) (natural protein) | 2 | –
B1 | – | 2
B2 | – | 2
